Test results from paper PMC3563690 (The Journal of Cell Biology, 2013).

T1: HA-tagged mouse MDGA2 (mouse)
T1 sequence (P60755 whole entry, looked up): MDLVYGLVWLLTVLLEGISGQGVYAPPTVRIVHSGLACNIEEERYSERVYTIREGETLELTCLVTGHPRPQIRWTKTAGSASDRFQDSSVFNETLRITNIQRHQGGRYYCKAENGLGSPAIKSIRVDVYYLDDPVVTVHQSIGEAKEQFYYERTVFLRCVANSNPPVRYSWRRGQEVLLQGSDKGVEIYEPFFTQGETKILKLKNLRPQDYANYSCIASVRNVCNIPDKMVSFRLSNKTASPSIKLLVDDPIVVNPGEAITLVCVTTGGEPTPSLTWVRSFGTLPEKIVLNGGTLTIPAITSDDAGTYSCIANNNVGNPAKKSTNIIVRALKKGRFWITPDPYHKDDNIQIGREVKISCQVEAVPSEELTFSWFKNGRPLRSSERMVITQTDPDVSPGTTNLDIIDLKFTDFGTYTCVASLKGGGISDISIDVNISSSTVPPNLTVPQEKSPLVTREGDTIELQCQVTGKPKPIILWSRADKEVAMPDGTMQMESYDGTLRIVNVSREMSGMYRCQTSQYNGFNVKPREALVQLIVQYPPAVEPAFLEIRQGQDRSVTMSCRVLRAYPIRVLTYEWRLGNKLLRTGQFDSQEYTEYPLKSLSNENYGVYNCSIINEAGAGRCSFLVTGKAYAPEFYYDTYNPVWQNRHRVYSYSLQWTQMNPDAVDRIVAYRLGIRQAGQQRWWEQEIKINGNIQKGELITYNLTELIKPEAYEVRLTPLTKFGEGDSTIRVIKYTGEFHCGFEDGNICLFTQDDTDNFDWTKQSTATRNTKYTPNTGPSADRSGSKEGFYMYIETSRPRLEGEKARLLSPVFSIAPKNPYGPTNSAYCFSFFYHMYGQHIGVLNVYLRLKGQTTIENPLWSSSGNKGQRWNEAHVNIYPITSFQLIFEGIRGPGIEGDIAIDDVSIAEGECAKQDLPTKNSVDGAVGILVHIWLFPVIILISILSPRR

T2: extracellular HA-tagged rat MDGA1 (rat, UniProt P85171 19-933)
T2 sequence (looked up): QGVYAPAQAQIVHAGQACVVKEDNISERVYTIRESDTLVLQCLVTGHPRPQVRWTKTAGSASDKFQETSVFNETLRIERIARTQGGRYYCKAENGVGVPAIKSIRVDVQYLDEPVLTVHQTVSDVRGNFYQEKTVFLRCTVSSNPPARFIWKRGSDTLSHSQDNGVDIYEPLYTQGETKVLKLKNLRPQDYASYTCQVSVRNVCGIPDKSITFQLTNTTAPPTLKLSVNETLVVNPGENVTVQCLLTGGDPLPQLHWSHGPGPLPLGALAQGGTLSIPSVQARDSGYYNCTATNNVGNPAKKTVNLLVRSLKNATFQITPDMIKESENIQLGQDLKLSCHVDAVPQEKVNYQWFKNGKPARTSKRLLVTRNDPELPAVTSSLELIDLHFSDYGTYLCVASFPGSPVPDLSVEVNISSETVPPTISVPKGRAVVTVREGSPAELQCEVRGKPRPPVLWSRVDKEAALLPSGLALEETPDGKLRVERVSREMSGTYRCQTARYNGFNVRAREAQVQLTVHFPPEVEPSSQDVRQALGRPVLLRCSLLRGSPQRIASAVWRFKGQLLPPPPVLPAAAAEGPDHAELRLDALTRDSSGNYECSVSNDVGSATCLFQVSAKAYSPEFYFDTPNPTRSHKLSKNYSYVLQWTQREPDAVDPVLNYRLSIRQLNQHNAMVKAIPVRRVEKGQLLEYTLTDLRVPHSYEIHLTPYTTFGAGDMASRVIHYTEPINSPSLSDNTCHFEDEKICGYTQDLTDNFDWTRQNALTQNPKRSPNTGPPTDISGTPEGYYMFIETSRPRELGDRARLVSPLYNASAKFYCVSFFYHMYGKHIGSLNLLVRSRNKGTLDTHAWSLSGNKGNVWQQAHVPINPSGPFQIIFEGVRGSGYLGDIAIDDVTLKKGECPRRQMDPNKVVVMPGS


What was measured:
Assay in all cases: immunostaining of cells or tissue
[1] = target: T1, HA-tagged mouse MDGA2 (mouse)
[2] = target: HA-neurexin1β(−S4) (mouse | rat)
[3] = target: T2, extracellular HA-tagged rat MDGA1

Kd [1] [nM]	Kd [2] [nM]	Kd [3] [nM]	Molecule
45.9	8.4	–	soluble neuroligin-2–Fc fusion protein (from UniProt Q69ZK9 15-676)
–	–	7.3	soluble neuroligin-2–Fc fusion protein (Fc fusion, UniProt Q69ZK9 15-676, looked up) QRGGGGPGGGAPGGPGLGLGSLGEERFPVVNTAYGRVRGVRRELNNEILGPVVQFLGVPYATPPLGARRFQPPEAPASWPGVRNATTLPPACPQNLHGALPAIMLPVWFTDNLEAAATYVQNQSEDCLYLNLYVPTEDGPLTKKRDEATLNPPDTDIRDSGKKPVMLFLHGGSYMEGTGNMFDGSVLAAYGNVIVVTLNYRLGVLGFLSTGDQAAKGNYGLLDQIQALRWLSENIAHFGGDPERITIFGSGAGASCVNLLILSHHSEGLFQKAIAQSGTAISSWSVNYQPLKYTRLLAAKVGCDREDSTEAVECLRRKSSRELVDQDVQPARYHIAFGPVVDGDVVPDDPEILMQQGEFLNYDMLIGVNQGEGLKFVEDSAESEDGVSASAFDFTVSNFVDNLYGYPEGKDVLRETIKFMYTDWADRDNGEMRRKTLLALFTDHQWVAPAVATAKLHADYQSPVYFYTFYHHCQAEGRPEWADAAHGDELPYVFGVPMVGATDLFPCNFSKNDVMLSAVVMTYWTNFAKTGDPNQPVPQDTKFIHTKPNRFEEVVWSKFNSKEKQYLHIGLKPRVRDNYRANKVAFWLELVPHLHNLHTELFTTTTRLPPYATRWPPRTPGPGTSGTRRPPPPATLPPESDIDLGPRAYDRFPGDSRDYSTE
